Laboratory results reported in PMC9976877, “The Ku complex promotes DNA end-bridging and this function is antagonized by Tel1/ATM kinase”.
Numbering of substitutions follows the chain as printed.

Key:
[1] = molecular target: T1, Ku70-Strep (wild type);Ku80-6xHis (Saccharomyces cerevisiae;Saccharomyces …, UniProt P32807;Q04437 1-602;1-629, |); experiment: EMSA; 13 nM DNA; 0-104 nM Ku; shift detectable at 4-fold ratio of Ku to DNA; 2 mM MgCl2; EMSA: 25 mM Tris/HCl pH 7.5, 100 mM NaCl, 2 mM MgCl2, 7% glycerol, 1 mM DTT, 30 min on ice; 6% native gel at 4 °C; conditions: protein: recombinant;recombinant; tags: Strep;6xHis; copies: 1;1; label: 32P; blunt
T1 sequence 1: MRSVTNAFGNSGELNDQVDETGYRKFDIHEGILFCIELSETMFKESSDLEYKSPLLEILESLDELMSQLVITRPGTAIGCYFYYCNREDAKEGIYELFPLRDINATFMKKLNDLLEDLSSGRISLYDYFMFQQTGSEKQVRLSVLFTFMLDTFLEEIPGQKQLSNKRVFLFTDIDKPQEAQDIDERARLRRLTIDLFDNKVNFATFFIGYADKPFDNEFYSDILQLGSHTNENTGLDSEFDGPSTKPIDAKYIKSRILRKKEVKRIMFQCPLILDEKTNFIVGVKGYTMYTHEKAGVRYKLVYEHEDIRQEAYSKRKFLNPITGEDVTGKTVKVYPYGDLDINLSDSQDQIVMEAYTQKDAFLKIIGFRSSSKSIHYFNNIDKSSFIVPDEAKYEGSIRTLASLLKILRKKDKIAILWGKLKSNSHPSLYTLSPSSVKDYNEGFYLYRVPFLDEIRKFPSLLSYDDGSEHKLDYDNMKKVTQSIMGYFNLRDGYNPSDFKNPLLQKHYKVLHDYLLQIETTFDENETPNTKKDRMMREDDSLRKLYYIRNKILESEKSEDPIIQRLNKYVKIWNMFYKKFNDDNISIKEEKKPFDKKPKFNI
T1 sequence 2: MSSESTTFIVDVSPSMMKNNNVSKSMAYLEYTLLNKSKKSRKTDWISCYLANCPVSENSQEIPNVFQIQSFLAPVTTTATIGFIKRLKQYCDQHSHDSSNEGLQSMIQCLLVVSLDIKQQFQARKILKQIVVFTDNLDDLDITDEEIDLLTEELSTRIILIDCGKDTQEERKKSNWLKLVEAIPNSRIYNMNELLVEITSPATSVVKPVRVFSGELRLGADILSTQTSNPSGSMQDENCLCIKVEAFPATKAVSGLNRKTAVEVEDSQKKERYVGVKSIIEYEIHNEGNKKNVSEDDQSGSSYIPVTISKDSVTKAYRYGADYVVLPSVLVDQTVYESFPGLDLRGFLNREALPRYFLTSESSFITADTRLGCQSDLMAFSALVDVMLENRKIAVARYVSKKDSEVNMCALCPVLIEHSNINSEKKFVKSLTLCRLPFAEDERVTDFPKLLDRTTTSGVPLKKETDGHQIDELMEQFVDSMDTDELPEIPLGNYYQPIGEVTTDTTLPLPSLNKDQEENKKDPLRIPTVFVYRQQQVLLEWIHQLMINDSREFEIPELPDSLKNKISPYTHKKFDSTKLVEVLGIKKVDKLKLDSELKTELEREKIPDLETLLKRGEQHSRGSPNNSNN

[2] = molecular target: T2, Ku70 C85Y-Strep;Ku80-6xHis (Saccharomyces cerevisiae;Saccharomyces …, UniProt P32807;Q04437 1-602;1-629, C85Y|); experiment: EMSA; 13 nM DNA; 0-104 nM Ku; shift detectable at 2-fold ratio of Ku to DNA (stronger than wild type); 2 mM MgCl2; EMSA: 25 mM Tris/HCl pH 7.5, 100 mM NaCl, 2 mM MgCl2, 7% glycerol, 1 mM DTT, 30 min on ice; 6% native gel at 4 °C; conditions: protein: recombinant;recombinant; tags: Strep;6xHis; copies: 1;1; label: 32P; blunt
T2 sequence 1: T1 sequence 1 with C85Y
T2 sequence 2: T1 sequence 2

B1: 21 bp blunt-ended dsDNA (dsDNA)
DNA 1: CCGCACACCCACACACCAGTG
DNA 2: CACTGGTGTGTGGGTGTGCGG
binding result [1]: binds
binding result [2]: binds
